{"source": "paper PMC7031059", "binders": {"B1": {"name": "6T (PpDAM6 promoter site-II) (dsDNA)", "DNA 1": "GGTGGGCCCAATCAAGTGACATGACAGCGA", "DNA 2": "TCGCTGTCATGTCACTTGATTGGGCCCACC"}, "B2": {"name": "6mT (GGGCCC to AAATTT) (dsDNA)", "DNA 1": "GGTAAATTTAATCAAGTGACATGACAGCGA", "DNA 2": "TCGCTGTCATGTCACTTGATTAAATTTACC"}, "B3": {"name": "ABF2-F (PpABF2 promoter TBS) (dsDNA)", "DNA 1": "ACCTAACCTAAGTGGGACCATGCCCTTTTT", "DNA 2": "AAAAAGGGCATGGTCCCACTTAGGTTAGGT"}, "B4": {"name": "5T2 (dsDNA)", "DNA 1": "CATGTGTCATGGTGGGCTCAATCAAGTGGC", "DNA 2": "GCCACTTGATTGAGCCCACCATGACACATG"}, "B5": {"name": "5mT2 (GGG to TTT) (dsDNA)", "DNA 1": "B4 DNA 1 with G14T, G15T, G16T", "DNA 2": "B4 DNA 2 with C15A, C16A, C17A"}}, "note": "Residue numbers refer to the chain shown, from its start."}
{"target": "PpTCP20-GST (Prunus persica var. nectarina cv. …, UniProt A0A251Q833 1-310)", "test": "EMSA"}
{"binder": "B1", "binding result": "binds"}
{"binder": "B2", "binding result": "no binding"}
{"binder": "B3", "binding result": "binds"}
{"binder": "B4", "binding result": "binds"}
{"binder": "B5", "binding result": "no binding"}
